Target: the molecule itself
Experiment: AFM of spontaneously formed aggregates (self-assembly)

B1: Ex1Q48 (other)
chain: MATLEKLMKAFESLKSFQQQQQQQQQQQQQQQQQQQQQQQQQQQQQQQQQQQQQQQQQQQQQQQQPPPPPPPPPPPQLPQPPPQAQPLLPQLQPPPPPPPPPPGPAAAEEPLHRP
notes: also called HTTEx1Q48; HTTex1Q48
binding result: binds
